Measurements published in patent US20140206607A1 (INDIANA UNIVERSITY RESEARCH AND TECHNOLOGY, published 2014).
Numbered stars: 1 amine (or outer) side, 2 acyl side, 3 side chain; on linkers, the order of the positions; unused ones are H or OH. Square brackets hold non-standard residues; d marks the D form. Side chains are listed from the residue outwards. Ends that are not written are not given here. * marks the point of attachment. 40K‑TE PEG = 40 kDa PEG covalently bound via thioether, formed by reaction of the free thiol of the peptide (Cys side chain) with an iodoacetic-functionalized PEG; γGlu = O=C(O)[C@H](CCC(=O)[*:2])N[*:1]; Palmitoyl = CCCCCCCCCCCCCCCC(=O)*; Aib = CC(C)(N)C(=O)O

T1: GIP receptor (UniProt P48546 22-466)
T1 sequence (looked up): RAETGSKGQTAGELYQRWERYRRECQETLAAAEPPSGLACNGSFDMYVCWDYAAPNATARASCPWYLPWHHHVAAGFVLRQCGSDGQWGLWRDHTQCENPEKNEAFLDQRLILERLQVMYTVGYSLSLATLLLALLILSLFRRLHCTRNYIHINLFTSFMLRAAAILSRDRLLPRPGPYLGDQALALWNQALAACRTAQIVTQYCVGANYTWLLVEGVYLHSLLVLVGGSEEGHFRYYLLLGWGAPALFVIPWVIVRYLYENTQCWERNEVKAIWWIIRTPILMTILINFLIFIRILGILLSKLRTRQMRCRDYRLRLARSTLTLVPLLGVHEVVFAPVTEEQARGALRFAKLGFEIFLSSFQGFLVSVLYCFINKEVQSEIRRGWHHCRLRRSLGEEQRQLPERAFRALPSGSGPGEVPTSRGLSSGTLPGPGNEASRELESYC

B1: peptide of SEQ ID NO: 32 (peptide)
peptide: H[Aib]QGTFTSDK([γGlu-γGlu-Palmitoyl])SKYLD[Aib]RAAQDFVQWLMDTK[dA]-OH
modifications: N-terminus assumed
SMILES: CCCCCCCCCCCCCCCC(=O)N[C@@H](CCC(=O)N[C@@H](CCC(=O)NCCCC[C@H](NC(=O)[C@H](CC(=O)O)NC(=O)[C@H](CO)NC(=O)[C@@H](NC(=O)[C@H](Cc1ccccc1)NC(=O)[C@@H](NC(=O)CNC(=O)[C@H](CCC(N)=O)NC(=O)C(C)(C)NC(=O)[C@@H](N)Cc1c[nH]cn1)[C@@H](C)O)[C@@H](C)O)C(=O)N[C@@H](CO)C(=O)N[C@@H](CCCCN)C(=O)N[C@@H](Cc1ccc(O)cc1)C(=O)N[C@@H](CC(C)C)C(=O)N[C@@H](CC(=O)O)C(=O)NC(C)(C)C(=O)N[C@@H](CCCNC(=N)N)C(=O)N[C@@H](C)C(=O)N[C@@H](C)C(=O)N[C@@H](CCC(N)=O)C(=O)N[C@@H](CC(=O)O)C(=O)N[C@@H](Cc1ccccc1)C(=O)N[C@H](C(=O)N[C@@H](CCC(N)=O)C(=O)N[C@@H](Cc1c[nH]c2ccccc12)C(=O)N[C@@H](CC(C)C)C(=O)N[C@@H](CCSC)C(=O)N[C@@H](CC(=O)O)C(=O)N[C@H](C(=O)N[C@@H](CCCCN)C(=O)N[C@H](C)C(=O)O)[C@@H](C)O)C(C)C)C(=O)O)C(=O)O
B2: peptide of SEQ ID NO: 29 (peptide)
peptide: H[Aib]QGTFTSDK([γGlu-γGlu-Palmitoyl])SKYLD[Aib]RAAQDFVQWLL[Aib]GRG-NH2
modifications: N-terminus assumed
SMILES: CCCCCCCCCCCCCCCC(=O)N[C@@H](CCC(=O)N[C@@H](CCC(=O)NCCCC[C@H](NC(=O)[C@H](CC(=O)O)NC(=O)[C@H](CO)NC(=O)[C@@H](NC(=O)[C@H](Cc1ccccc1)NC(=O)[C@@H](NC(=O)CNC(=O)[C@H](CCC(N)=O)NC(=O)C(C)(C)NC(=O)[C@@H](N)Cc1c[nH]cn1)[C@@H](C)O)[C@@H](C)O)C(=O)N[C@@H](CO)C(=O)N[C@@H](CCCCN)C(=O)N[C@@H](Cc1ccc(O)cc1)C(=O)N[C@@H](CC(C)C)C(=O)N[C@@H](CC(=O)O)C(=O)NC(C)(C)C(=O)N[C@@H](CCCNC(=N)N)C(=O)N[C@@H](C)C(=O)N[C@@H](C)C(=O)N[C@@H](CCC(N)=O)C(=O)N[C@@H](CC(=O)O)C(=O)N[C@@H](Cc1ccccc1)C(=O)N[C@H](C(=O)N[C@@H](CCC(N)=O)C(=O)N[C@@H](Cc1c[nH]c2ccccc12)C(=O)N[C@@H](CC(C)C)C(=O)N[C@@H](CC(C)C)C(=O)NC(C)(C)C(=O)NCC(=O)N[C@@H](CCCNC(=N)N)C(=O)NCC(N)=O)C(C)C)C(=O)O)C(=O)O
B3: peptide of SEQ ID NO: 31 (peptide)
peptide: H[Aib]QGTFTSDK([γGlu-γGlu-Palmitoyl])SKYLD[Aib]RAAQDFVQWLMKGRG-OH
modifications: N-terminus assumed
SMILES: CCCCCCCCCCCCCCCC(=O)N[C@@H](CCC(=O)N[C@@H](CCC(=O)NCCCC[C@H](NC(=O)[C@H](CC(=O)O)NC(=O)[C@H](CO)NC(=O)[C@@H](NC(=O)[C@H](Cc1ccccc1)NC(=O)[C@@H](NC(=O)CNC(=O)[C@H](CCC(N)=O)NC(=O)C(C)(C)NC(=O)[C@@H](N)Cc1c[nH]cn1)[C@@H](C)O)[C@@H](C)O)C(=O)N[C@@H](CO)C(=O)N[C@@H](CCCCN)C(=O)N[C@@H](Cc1ccc(O)cc1)C(=O)N[C@@H](CC(C)C)C(=O)N[C@@H](CC(=O)O)C(=O)NC(C)(C)C(=O)N[C@@H](CCCNC(=N)N)C(=O)N[C@@H](C)C(=O)N[C@@H](C)C(=O)N[C@@H](CCC(N)=O)C(=O)N[C@@H](CC(=O)O)C(=O)N[C@@H](Cc1ccccc1)C(=O)N[C@H](C(=O)N[C@@H](CCC(N)=O)C(=O)N[C@@H](Cc1c[nH]c2ccccc12)C(=O)N[C@@H](CC(C)C)C(=O)N[C@@H](CCSC)C(=O)N[C@@H](CCCCN)C(=O)NCC(=O)N[C@@H](CCCNC(=N)N)C(=O)NCC(=O)O)C(C)C)C(=O)O)C(=O)O
B4: peptide of SEQ ID NO: 30 (peptide)
peptide: H[Aib]QGTFTSDK([γGlu-Palmitoyl])SKYLD[Aib]RAAQDFVQWLLDGRG-NH2
modifications: N-terminus assumed
SMILES: CCCCCCCCCCCCCCCC(=O)N[C@@H](CCC(=O)NCCCC[C@H](NC(=O)[C@H](CC(=O)O)NC(=O)[C@H](CO)NC(=O)[C@@H](NC(=O)[C@H](Cc1ccccc1)NC(=O)[C@@H](NC(=O)CNC(=O)[C@H](CCC(N)=O)NC(=O)C(C)(C)NC(=O)[C@@H](N)Cc1c[nH]cn1)[C@@H](C)O)[C@@H](C)O)C(=O)N[C@@H](CO)C(=O)N[C@@H](CCCCN)C(=O)N[C@@H](Cc1ccc(O)cc1)C(=O)N[C@@H](CC(C)C)C(=O)N[C@@H](CC(=O)O)C(=O)NC(C)(C)C(=O)N[C@@H](CCCNC(=N)N)C(=O)N[C@@H](C)C(=O)N[C@@H](C)C(=O)N[C@@H](CCC(N)=O)C(=O)N[C@@H](CC(=O)O)C(=O)N[C@@H](Cc1ccccc1)C(=O)N[C@H](C(=O)N[C@@H](CCC(N)=O)C(=O)N[C@@H](Cc1c[nH]c2ccccc12)C(=O)N[C@@H](CC(C)C)C(=O)N[C@@H](CC(C)C)C(=O)N[C@@H](CC(=O)O)C(=O)NCC(=O)N[C@@H](CCCNC(=N)N)C(=O)NCC(N)=O)C(C)C)C(=O)O
B5: peptide of SEQ ID NO: 27 (peptide)
peptide: H[dS]QGTFTSDK([γGlu-Palmitoyl])SKYLDERAAQDFVQWLLKGRG-NH2
modifications: N-terminus assumed
SMILES: CCCCCCCCCCCCCCCC(=O)N[C@@H](CCC(=O)NCCCC[C@H](NC(=O)[C@H](CC(=O)O)NC(=O)[C@H](CO)NC(=O)[C@@H](NC(=O)[C@H](Cc1ccccc1)NC(=O)[C@@H](NC(=O)CNC(=O)[C@H](CCC(N)=O)NC(=O)[C@@H](CO)NC(=O)[C@@H](N)Cc1c[nH]cn1)[C@@H](C)O)[C@@H](C)O)C(=O)N[C@@H](CO)C(=O)N[C@@H](CCCCN)C(=O)N[C@@H](Cc1ccc(O)cc1)C(=O)N[C@@H](CC(C)C)C(=O)N[C@@H](CC(=O)O)C(=O)N[C@@H](CCC(=O)O)C(=O)N[C@@H](CCCNC(=N)N)C(=O)N[C@@H](C)C(=O)N[C@@H](C)C(=O)N[C@@H](CCC(N)=O)C(=O)N[C@@H](CC(=O)O)C(=O)N[C@@H](Cc1ccccc1)C(=O)N[C@H](C(=O)N[C@@H](CCC(N)=O)C(=O)N[C@@H](Cc1c[nH]c2ccccc12)C(=O)N[C@@H](CC(C)C)C(=O)N[C@@H](CC(C)C)C(=O)N[C@@H](CCCCN)C(=O)NCC(=O)N[C@@H](CCCNC(=N)N)C(=O)NCC(N)=O)C(C)C)C(=O)O
B6: peptide of SEQ ID NO: 28 (peptide)
peptide: H[dS]QGTFTSDK([γGlu-Palmitoyl])SKYLDERAAQDFVQWLLDGRK-NH2
modifications: N-terminus assumed
SMILES: CCCCCCCCCCCCCCCC(=O)N[C@@H](CCC(=O)NCCCC[C@H](NC(=O)[C@H](CC(=O)O)NC(=O)[C@H](CO)NC(=O)[C@@H](NC(=O)[C@H](Cc1ccccc1)NC(=O)[C@@H](NC(=O)CNC(=O)[C@H](CCC(N)=O)NC(=O)[C@@H](CO)NC(=O)[C@@H](N)Cc1c[nH]cn1)[C@@H](C)O)[C@@H](C)O)C(=O)N[C@@H](CO)C(=O)N[C@@H](CCCCN)C(=O)N[C@@H](Cc1ccc(O)cc1)C(=O)N[C@@H](CC(C)C)C(=O)N[C@@H](CC(=O)O)C(=O)N[C@@H](CCC(=O)O)C(=O)N[C@@H](CCCNC(=N)N)C(=O)N[C@@H](C)C(=O)N[C@@H](C)C(=O)N[C@@H](CCC(N)=O)C(=O)N[C@@H](CC(=O)O)C(=O)N[C@@H](Cc1ccccc1)C(=O)N[C@H](C(=O)N[C@@H](CCC(N)=O)C(=O)N[C@@H](Cc1c[nH]c2ccccc12)C(=O)N[C@@H](CC(C)C)C(=O)N[C@@H](CC(C)C)C(=O)N[C@@H](CC(=O)O)C(=O)NCC(=O)N[C@@H](CCCNC(=N)N)C(=O)N[C@@H](CCCCN)C(N)=O)C(C)C)C(=O)O

Key:
Test in all cases: cell-based or functional assay
glucagon receptor = glucagon receptor (UniProt P47871 26-477, limits assumed)
Sequence of glucagon receptor (P47871 26-477 limits assumed): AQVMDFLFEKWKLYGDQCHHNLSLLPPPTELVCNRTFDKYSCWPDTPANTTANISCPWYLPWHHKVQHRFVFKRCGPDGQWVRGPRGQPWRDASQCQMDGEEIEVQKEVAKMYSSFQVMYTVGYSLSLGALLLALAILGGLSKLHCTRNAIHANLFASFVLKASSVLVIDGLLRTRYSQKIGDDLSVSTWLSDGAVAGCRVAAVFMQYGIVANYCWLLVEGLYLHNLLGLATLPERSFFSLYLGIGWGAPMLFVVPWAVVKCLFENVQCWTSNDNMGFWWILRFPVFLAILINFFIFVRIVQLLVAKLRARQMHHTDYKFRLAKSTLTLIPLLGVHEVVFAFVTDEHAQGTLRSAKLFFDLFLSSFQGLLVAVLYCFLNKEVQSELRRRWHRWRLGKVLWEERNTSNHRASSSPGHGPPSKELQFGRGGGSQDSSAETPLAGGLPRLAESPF

GLP-1 receptor = GLP-1 receptor (UniProt P43220 24-463, limits assumed)
GIP receptor = target: T1, GIP receptor

Row | Binder | EC50 (nM) at glucagon receptor (glucagon receptor) | EC50 (nM) at GLP-1 receptor (GLP-1 receptor) | EC50 (nM) at GIP receptor (GIP receptor)
1 | B1 | 0.007 nM | 0.008 nM | 2.08 nM
2 | B2 | 0.014 nM | 0.007 nM | 1.65 nM
3 | B3 | 0.016 nM | 0.007 nM | 2.34 nM
4 | H[Aib]QGTFTSDYSKYLDERRA[Aib]EFVC(40K‑TE PEG)WLLDT-NH2 [peptide of SEQ ID NO: 14] | 0.365 nM | 0.076 nM | 33.7 nM
5 | B4 | 0.933 nM | 0.0082 nM | 9.06 nM
6 | B5 | 0.022 nM | 0.005 nM | 2.12 nM
7 | B6 | 0.015 nM | 0.003 nM | 2.84 nM
